Reference: patent publication US6300103A, “Anti-microbial proteins” (Syngenta Participants AG, priority 1993, dated 2001)
Ends that are not written are not given here.

B1: peak 3.1: anti-microbial protein of about 7 kDa from sugar beet leaf intercellular washing fluid, peak 3.1 in FIG. 3 (protein)
chain: ITCGLVASKLAPCIGYLQGAPGPSAGCCGGIKGLNSAAASPADRKTACTCLKSAATSIKGINYGKAASLPRQCGVSVPYAISPNTNCNAIH
B2: peak 3.2: anti-microbial protein of about 7 kDa from sugar beet leaf intercellular washing fluid, peak 3.2 in FIG. 3 (protein)
chain: ITCGLVASKLAPCIGYLQGAPGPSAGCCGGIKGLNSAAASPADRKTACTCLKSAATSMKGINYGKAASLPRQCGVSIPYAISPNTNCNAIH

What follows are molecules tested on C. beticola (assay: microtiter plate bioassay of inhibition of fungal growth (absorbance at 620 nm)). Settings: spores of C. beticola in 96 well micro-titre plates, FIGS. 4, 7-8 (10 ug alone, 2 ug each in combination).
Assay type: cell-based
Protocol: The thus obtained IWF is fractionated by cation exchange chromatography on a 10 ml CM-Sepharose column (Pharmacia LKB) pre-equilibrated in starting buffer (20 mM HAc (pH 4.5)). The fractionation is performed at 4° C. at a flow rate of 25 ml/h. Fractions of 3 ml are collected. Proteins not bound to the column are removed by extensive washing of the column with starting buffer. Bound proteins are eluted by applying to the column further starting buffer comprising stepwise increased salt concentrations: viz, 0.1 M NaCg, 0.3 M NACl and 0.5 M NaCl. The absorbance at 280 nm of the eluate is measured, and fractions judged to comprise protein are tested for their anti-fungal activity against C. beticola using the microtiter plate bioassay described previously (PCT Patent Application No. PCT/DK92/00108, Publication No. WO 92/17591, now assigned to Sandoz LTD). […] The inhibition of fungal growth is measured in 96 well micro-titre plates at 620 nm, essentially as described in WO 92/17591. […] The proteins, either alone or in combination with WIN N (which is purified from barley grain or stressed barley leaf as described by Hejgaard et al (FEBS Letters, 307, 389-392 (1992)), and/or a protein having a sequence corresponding to at least one of those given in SEQ ID Nos. 4-6, are incubated with spores of C. beticola. The assay mix (240 ul) contains 100 ul of potato dextrose broth (Difco), 40 ul protein sample (or buffer control) in 100 mM Tris and 20 mM NaCl (pH 8.0) as well as approximately 400 spores in 100 ul water. The micro-titre plates are sealed with tape to avoid evaporation and contamination and subsequently incubated at room temperature on an agitator operated at 200 rpm. The absorbance at 620 nm is measured each day for 8 days and plotted for each concentration of protein vs time.

| Molecule | anti-fungal activity (inhibition of fungal growth) |
| --- | --- |
| peaks 1 and 2: anti-microbial protein of 2.5-3 kDa (dimer about 5 kDa) from sugar beet, peaks 1 and 2 in FIG. 6 (SGECNMYGRCPPGYCCSKFGYCGVGRAYCG; cysteine pairing not given here; also: dimer about 5 kDa) | significant anti-fungal activity |
| B1 | significant anti-fungal activity |
| B2 | significant anti-fungal activity |
